Data published in doi:10.1101/2022.09.13.507797 (bioRxiv, 2022).

Tests used:
mouse factor H [1] = target: T1, mouse factor H (mouse, UniProt P06909 19-1234); test: SPR
mouse factor H [2] = target: T1, mouse factor H; test: ELISA
human factor H = human factor H (human, UniProt P08603 19-1231); test: ELISA
human factor H, sequence (P08603 19-1231): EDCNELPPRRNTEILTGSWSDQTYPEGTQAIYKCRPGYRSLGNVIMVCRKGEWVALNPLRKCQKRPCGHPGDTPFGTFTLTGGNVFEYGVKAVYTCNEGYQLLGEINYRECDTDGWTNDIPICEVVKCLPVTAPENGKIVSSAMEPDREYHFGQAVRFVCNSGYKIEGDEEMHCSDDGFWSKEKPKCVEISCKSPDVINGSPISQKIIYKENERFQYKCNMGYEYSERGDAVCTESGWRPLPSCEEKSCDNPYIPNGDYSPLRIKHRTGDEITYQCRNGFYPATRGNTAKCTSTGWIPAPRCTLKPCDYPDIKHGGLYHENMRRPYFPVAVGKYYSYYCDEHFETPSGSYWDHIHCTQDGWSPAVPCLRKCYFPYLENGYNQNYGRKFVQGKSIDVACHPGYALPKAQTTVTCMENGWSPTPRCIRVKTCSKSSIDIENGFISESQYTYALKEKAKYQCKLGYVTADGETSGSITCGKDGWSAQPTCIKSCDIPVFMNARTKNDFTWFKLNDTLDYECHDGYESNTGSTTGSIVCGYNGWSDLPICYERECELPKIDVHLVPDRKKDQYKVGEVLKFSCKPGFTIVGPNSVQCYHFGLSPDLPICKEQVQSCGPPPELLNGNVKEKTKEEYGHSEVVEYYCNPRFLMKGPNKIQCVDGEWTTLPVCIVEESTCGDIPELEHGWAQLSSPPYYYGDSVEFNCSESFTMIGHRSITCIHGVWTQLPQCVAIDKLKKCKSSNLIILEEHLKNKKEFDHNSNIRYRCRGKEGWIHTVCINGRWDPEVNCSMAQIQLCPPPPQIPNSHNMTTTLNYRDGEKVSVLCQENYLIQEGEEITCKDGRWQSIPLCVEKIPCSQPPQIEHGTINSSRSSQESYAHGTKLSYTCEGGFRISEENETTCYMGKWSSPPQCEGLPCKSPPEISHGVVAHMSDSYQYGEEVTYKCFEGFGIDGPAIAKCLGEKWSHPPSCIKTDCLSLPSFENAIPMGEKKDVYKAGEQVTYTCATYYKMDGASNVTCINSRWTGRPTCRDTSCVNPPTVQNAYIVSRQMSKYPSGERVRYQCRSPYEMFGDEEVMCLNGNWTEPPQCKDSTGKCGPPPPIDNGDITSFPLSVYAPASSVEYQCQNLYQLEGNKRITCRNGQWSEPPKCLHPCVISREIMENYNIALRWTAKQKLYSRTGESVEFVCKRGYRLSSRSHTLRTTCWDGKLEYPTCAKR

T1 sequence (P06909 19-1234): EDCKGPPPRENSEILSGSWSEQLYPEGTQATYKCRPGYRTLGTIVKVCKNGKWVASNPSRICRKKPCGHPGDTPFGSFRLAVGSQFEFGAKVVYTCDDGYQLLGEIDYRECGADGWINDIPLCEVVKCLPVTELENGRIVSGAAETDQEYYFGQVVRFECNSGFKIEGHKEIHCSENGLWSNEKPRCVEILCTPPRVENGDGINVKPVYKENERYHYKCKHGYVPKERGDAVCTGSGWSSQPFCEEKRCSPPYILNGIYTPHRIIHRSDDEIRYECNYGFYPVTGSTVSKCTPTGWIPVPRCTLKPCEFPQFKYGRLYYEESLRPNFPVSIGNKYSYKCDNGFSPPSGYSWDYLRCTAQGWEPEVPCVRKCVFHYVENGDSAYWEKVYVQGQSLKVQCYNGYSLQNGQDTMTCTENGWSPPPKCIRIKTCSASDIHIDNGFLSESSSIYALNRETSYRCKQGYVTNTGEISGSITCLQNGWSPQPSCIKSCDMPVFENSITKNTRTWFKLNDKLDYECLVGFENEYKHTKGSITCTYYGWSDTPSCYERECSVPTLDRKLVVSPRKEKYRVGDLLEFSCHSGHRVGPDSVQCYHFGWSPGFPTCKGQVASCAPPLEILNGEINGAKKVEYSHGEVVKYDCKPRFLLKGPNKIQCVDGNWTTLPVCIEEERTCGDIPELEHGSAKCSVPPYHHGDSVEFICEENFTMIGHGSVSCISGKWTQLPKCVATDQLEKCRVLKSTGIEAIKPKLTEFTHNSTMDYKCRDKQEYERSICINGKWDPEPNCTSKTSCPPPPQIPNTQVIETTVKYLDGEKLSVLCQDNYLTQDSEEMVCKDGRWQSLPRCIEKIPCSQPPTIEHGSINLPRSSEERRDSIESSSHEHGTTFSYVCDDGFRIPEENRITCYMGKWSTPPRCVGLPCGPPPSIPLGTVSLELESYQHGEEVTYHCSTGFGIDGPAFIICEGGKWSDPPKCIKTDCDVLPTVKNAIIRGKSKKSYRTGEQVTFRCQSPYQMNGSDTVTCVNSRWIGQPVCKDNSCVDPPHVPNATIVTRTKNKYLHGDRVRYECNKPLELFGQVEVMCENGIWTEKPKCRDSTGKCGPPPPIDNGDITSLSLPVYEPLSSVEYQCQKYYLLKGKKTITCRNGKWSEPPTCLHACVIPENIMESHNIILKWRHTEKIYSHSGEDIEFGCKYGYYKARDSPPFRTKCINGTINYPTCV

B1: CspZ from B. burgdorferi B31 (CspZB31), untagged recombinant protein (natural protein, Borrelia burgdorferi strain B31)
chain: RLNQRNINELKIFVEKAKYYSIKLDAIYNECTGAYNDIMTYSEGTFSDQSKVNQAISIFKKDNKIVNKFKELEKIIEEYKPMFLSKLIDDFAIELDQAVDNDVSNARHVADSYKKLRKSVVLAYIESFDVISSKFVDSKFVEASKKFVNKAKEFVEENDLIALECIVKTIGDMVNDREINSRSRYNNFYKKEADFLGAAVELEGAYKAIKQTLL
Mouse factor H [1]
  binding result: binds

B2: histidine-tagged CspZB31 (natural protein, Borrelia burgdorferi strain B31)
chain: B1 chain
Mouse factor H [2]
  binding result: binds
Human factor H
  binding result: binds
